In publication PMC9894263:

Molecular target: GLUT4 template complex Munc18-3:Syntaxin-4:VAMP2 (rat | not stated) (UniProt Q08850)
Test: optical tweezers

B1: full-length cysteine-free SNAP-23 ([change], [change], [change], [change], [change]) (natural protein)
chain: MDDLSPEEIQLRAHQVTDESLESTRRILGLAIESQDAGIKTITMLDEQGEQLNRIEEGMDQINKDMREAEKTLTELNKSSGLSVSPSNRTKNFESGKNYKATWGDGGDSSPSNVVSKQPSRITNGQPQQTTGAASGGYIKRITNDAREDEMEENLTQVGSILGNLKNMALDMGNEIDAQNQQIQKITEKADTNKNRIDIANTRAKKLIDS
probability of SNAP-23 binding: 0.42
